Measured values taken from patent publication US9556236 (UNIVERSITY OF SOUTH FLORIDA, dated 2017).
Positions of bridges follow the written chain, without caps; N, C: chain ends. No end group written: not given here.

Biological target: RSV fusion (F) protein (respiratory syncytial virus (strains …, UniProt P03420 26-574))
Test: cell-based or functional assay

RSV fusion (F) protein (respiratory syncytial virus, sequence (P03420 26-574): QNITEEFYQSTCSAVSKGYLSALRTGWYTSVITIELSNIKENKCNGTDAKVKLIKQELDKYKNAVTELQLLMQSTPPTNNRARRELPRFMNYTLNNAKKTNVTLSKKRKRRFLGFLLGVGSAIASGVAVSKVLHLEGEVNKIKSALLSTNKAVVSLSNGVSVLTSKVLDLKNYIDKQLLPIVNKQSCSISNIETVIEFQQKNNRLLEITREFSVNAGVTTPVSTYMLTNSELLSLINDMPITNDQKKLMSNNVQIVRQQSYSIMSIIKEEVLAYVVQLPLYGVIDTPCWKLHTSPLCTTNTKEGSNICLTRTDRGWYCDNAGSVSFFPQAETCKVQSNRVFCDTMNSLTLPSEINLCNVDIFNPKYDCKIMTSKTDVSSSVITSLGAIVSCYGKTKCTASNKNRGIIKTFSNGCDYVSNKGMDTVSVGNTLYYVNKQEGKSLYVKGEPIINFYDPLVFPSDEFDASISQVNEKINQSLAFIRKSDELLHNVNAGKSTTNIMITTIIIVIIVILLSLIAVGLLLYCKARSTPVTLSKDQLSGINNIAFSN

## DACISQVNECINQSLAFICKSDELLCNT (not fully specified (bridges); also: predicted disulfides C3-C10 and C19-C26) [HR2-D]
  A2 RSV viral titers, plaque assay (time point not clearly stated): 100 fold reduction
  A2 RSV viral titers, plaque assay on HEp2 cells, 24 h to 96 h pi: ≥ 100 fold reduction
  A2 RSV viral titers, plaque assay, 96 h pi: 50000 fold reduction
  RA2 RSV viral titers, plaque assay (time point not clearly stated): 100 fold decrease
  RA2 RSV viral titers, plaque assay on HEp2 cells, 24 h to 96 h pi: ≥ 100 fold reduction
  RA2 RSV viral titers, plaque assay, 96 h pi: 1000 fold less

## FDACISQVNECINQSLAFIRKSDELLHNVNAGKST (disulfide 4-11) [HR2-S]
  A2 RSV viral titers, plaque assay (time point not clearly stated): 0.1 fold decrease
  A2 RSV viral titers, plaque assay on HEp2 cells, 24 h to 96 h pi: ~0.2 fold reduction
  A2 RSV viral titers, plaque assay, 96 h pi: 0.1 fold decrease
  RA2 RSV viral titers, plaque assay (time point not clearly stated): 100 fold decrease
  RA2 RSV viral titers, plaque assay, 96 h pi: 20 fold smaller
